Assay in all cases: cell-based or functional assay
Assay [1] deals with STAT1 in interferon-treated human cells (human) (UniProt P42224).
The target in assay [2] is STAT3-STAT1 heterodimer (human) (UniProt P40763).
The target of assay [3] is STAT3-STAT3 homodimer (human) (UniProt P40763).
Assay [4] has as its target STAT3 (from a transfected expression vector).
For assay [5], the target named is STAT1 (from a transfected expression vector).
STAT1 (from a transfected expression vector), sequence (P42224 2-750): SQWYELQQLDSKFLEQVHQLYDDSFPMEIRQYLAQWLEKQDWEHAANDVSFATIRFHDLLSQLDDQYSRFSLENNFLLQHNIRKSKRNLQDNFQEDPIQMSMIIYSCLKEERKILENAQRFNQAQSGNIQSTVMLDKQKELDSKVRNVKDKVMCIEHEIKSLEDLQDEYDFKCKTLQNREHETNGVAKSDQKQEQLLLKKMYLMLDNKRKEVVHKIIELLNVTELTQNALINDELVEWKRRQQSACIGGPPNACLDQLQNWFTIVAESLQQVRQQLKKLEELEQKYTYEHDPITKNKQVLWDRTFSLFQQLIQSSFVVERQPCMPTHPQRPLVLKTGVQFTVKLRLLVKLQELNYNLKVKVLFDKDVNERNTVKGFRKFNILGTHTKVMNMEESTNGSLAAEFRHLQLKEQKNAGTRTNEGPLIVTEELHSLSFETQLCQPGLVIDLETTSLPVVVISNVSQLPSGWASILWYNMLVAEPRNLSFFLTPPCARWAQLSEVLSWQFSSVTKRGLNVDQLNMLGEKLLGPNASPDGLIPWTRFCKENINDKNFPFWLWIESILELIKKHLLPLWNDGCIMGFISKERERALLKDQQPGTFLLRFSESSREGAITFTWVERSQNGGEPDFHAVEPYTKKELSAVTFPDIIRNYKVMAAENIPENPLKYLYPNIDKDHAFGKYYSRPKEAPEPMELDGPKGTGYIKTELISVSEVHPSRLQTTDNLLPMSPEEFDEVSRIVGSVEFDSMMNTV

STAT1 in interferon-treated human cells (human), sequence (P42224 2-750 limits assumed): as the sequence (P42224 2-750) above
STAT3-STAT3 homodimer (human), sequence (P40763 2-770 limits assumed): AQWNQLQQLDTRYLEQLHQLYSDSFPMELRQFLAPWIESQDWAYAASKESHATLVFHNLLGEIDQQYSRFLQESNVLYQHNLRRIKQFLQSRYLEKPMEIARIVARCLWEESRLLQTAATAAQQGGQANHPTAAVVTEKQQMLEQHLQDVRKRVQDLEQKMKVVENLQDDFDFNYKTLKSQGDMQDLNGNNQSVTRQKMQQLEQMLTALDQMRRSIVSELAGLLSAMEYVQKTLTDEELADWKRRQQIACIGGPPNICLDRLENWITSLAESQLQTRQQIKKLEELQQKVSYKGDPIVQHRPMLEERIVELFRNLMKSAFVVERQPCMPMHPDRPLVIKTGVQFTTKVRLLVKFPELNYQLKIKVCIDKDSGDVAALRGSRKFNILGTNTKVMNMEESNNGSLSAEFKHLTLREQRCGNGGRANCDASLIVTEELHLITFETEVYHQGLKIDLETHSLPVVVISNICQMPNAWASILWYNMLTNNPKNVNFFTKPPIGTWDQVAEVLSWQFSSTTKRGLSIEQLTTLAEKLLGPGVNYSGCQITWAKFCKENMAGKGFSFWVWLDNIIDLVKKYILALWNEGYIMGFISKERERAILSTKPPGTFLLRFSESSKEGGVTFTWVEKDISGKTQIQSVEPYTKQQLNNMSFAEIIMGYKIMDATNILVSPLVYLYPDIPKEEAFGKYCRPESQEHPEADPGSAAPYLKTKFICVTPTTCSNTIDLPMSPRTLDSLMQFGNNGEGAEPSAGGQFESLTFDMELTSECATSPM
STAT3-STAT1 heterodimer (human), sequence (P40763 2-770 limits assumed, chain 1 of 2): as the sequence (P40763 2-770 limits assumed) above
STAT3-STAT1 heterodimer (human), sequence (P42224 2-750 limits assumed, chain 2 of 2, further chain): as the sequence (P42224 2-750) above

B1: recombinant fusion protein of glutathione-S-transferase (GST) with PIAS1 (protein, not shown: a dimerising Fc or GST)
chain: MADSAELKQMVMSLRVSELQVLLGYAGRNKHGRKHELLTKALHLLKAGCSPAVQMKIKELYRRRFPQKIMTPADLSIPNVHSSPMPPTLSPSTIPQLTYDGHPASSPLLPVSLLGPKHELELPHLTSALHPVHPDIKLQKLPFYDLLDELIKPTSLASDNSQRFRETCFAFALTPQQVQQISSSMDISGTKCDFTVQVQLRFCLSETSCPQEDHFPPNLCVKVNTKPCSLPGYLPPTKNGVEPKRPSRPINITSLVRLSTTVPNTIVVSWTAEIGRNYSMAVYLVKQLSSTVLLQRLRAKGIRNPDHSRALIKEKLTADSDSEIATTSLRVSLLCPLGKMRLTIPCRALTCSHLQCFDATLYIQMNEKKPTWVCPVCDKKAPYEHLIIDGLFMEILKYCTDCDEIQFKEDGSWAPMRSKKVQEVTASYNGVDGCLSSTLEHQVASHNQSSNKNKKVEVIDLTIDSSSDEEEEEPPAKRTCPSLSPTSPLSNKGILSLPHQASPVSRTPSLPAVDTSYINTSLIQDYRHPFHMTPMPYDLQGLDFFPFLSGDNQHYNTSLLAAAAAAVSDDQDLLHSSRFFPYTSSQMFLDQLSAGGSTSLPATNGSSSGSNSSLVSSNSLRESHGHGVASRSSADTASIFGIIPDIISLD
Molecule B1 came in with a DNA binding activity in gel retardation assay, nuclear extracts of IFN-treated Daudi B cells in assay [1] of 45 ng.

B2: recombinant fusion protein of GST with PIAS3 (protein, not shown: a dimerising Fc or GST)
chain: MVMSFRVSELQVLLGFAGRNKSGRKHELLAKALHLLKSSCAPSVQMKIKELYRRRFPRKTLGPSDLSLLSLPPGTSPPVHPDVTMKPLPFYEVYGELIRPTTLASTSSQRFEEAHFTFALTPQQLQQILTSREVLPGAKCDYTIQVQLRFCLCETSCPQEDYFPPNLFVKVNGKLCPLPGYLPPTKNGAEPRGPAVRSTSHPWLDSQPLSPTPSLLIGHLSLDGITPCPCLVRQLTAGTLLQKLRAKGIRNPDHSRALIKEKLTADPDSEVATTSLPGVTHVPARKMRLTVPCRALTCAHLQSFDAALYLQMNEKKPTWTCPVCDKKAPYESLIIDGLFMEILNSCSDDDEIQFMEDGSWCPMKPKKEASEVCPPPGYGLDGLQYSAVQEGIQPESKKRVEVIDLTIESSSDEEDLPPTKKHCSPTSAAIPALPGSKGALTSGHQPSSVLRSPAMGTLGSDFLSSLPVHEYPPAFPLGADIQGLDLFSFLQTESQQYGPSVIISLDEQDTLGHFFQYRGTPSHFLGPLAPTLGSCHGSSTPAPPPGRVSSIVAPGSSLREGHGGPLPSGPSLTGCRSDVISLD
Regarding B2, the DNA-binding activity in mobility gel shift assay, IL6-treated HepG2 nuclear extracts in assay [2] and in assay [3] was 100 ng each time.

B3: FLAG-tagged PIAS3 (protein, not shown: small tags and cut ends)
chain: B2 chain
For the molecule B3, the (4X)IRF-1 luciferase reporter in human 293 cells, IFN-α stimulation in assay [4] and in assay [5] was 1 µg each time.

Source of the values: patent publication US7265202.
